B1: “VH1+VL3”-scFv (scFv)
scFv: QVQLVQSGAEVKKPGASVKVSCKASDYTFTNYWLGWVRQAPGQGLEWMGHIYPGGGYTNYNEKFKGRVTMTRDTSTSTVYMELSSLRSEDTAVYYCARVRSGNDALDFWGQGTLVTVSSGGGGSGGGGSGGGGSEIVLTQSPATLSLSPGERATLSCRASESVDEYGISFMNWFQQKPGQAPRLLIYSASNQGSGIPARFSGSGSGTDFTLTISSLEPEDFAVYFCQQSKEVPWTFGGGTKLEIK
B2: “VH2+VL2”-scFv (scFv)
scFv: QVQLVQSGAEVKKPGASVKVSCKASDYTFTNYWLGWVRQAPGQGLEWIGHIYPGGGYTNYNEKFKGRVTMTADTSTSTVYMELSSLRSEDTAVYFCARVRSGNDALDFWGQGTLVTVSSGGGGSGGGGSGGGGSEIVLTQSPATLSLSPGERATLSCRASESVDEYGISFMNWYQQKPGQAPRLLIYSASNQGSGIPARFSGSGSGTDFTLTISSLEPEDFAVYFCQQSKEVPWTFGGGTKLEIK
B3: “VH3+VL1”-scFv (scFv)
scFv: QVQLVQSGAEVKKPGASVKVSCKASDYTFTNYWLGWVRQAPGQGLEWIGHIYPGGGYTNYNEKFKGRATLTADTSTSTVYMELSSLRSEDTAVYFCARVRSGNDALDFWGQGTLVTVSSGGGGSGGGGSGGGGSEIVLTQSPATLSLSPGERATLSCRASESVDEYGISFMNWYQQKPGQAPRLLIYSASNQGSGIPARFSGSGSGTDFTLTISSLEPEDFAVYYCQQSKEVPWTFGGGTKLEIK
B4: “VH4+VL2”-scFv (scFv)
scFv: QVQLVQSGAEVKKPGASVKVSCKASDYTFTNYWLGWVRQAPGHGLEWIGHIYPGGGYTNYNEKFKGRATLTADTSTSTVYMELSSLRSEDTAVYFCARVRSGNDALDFWGQGTLVTVSSGGGGSGGGGSGGGGSEIVLTQSPATLSLSPGERATLSCRASESVDEYGISFMNWYQQKPGQAPRLLIYSASNQGSGIPARFSGSGSGTDFTLTISSLEPEDFAVYFCQQSKEVPWTFGGGTKLEIK
B5: “VH3+VL3”-scFv (scFv)
scFv: QVQLVQSGAEVKKPGASVKVSCKASDYTFTNYWLGWVRQAPGQGLEWIGHIYPGGGYTNYNEKFKGRATLTADTSTSTVYMELSSLRSEDTAVYFCARVRSGNDALDFWGQGTLVTVSSGGGGSGGGGSGGGGSEIVLTQSPATLSLSPGERATLSCRASESVDEYGISFMNWFQQKPGQAPRLLIYSASNQGSGIPARFSGSGSGTDFTLTISSLEPEDFAVYFCQQSKEVPWTFGGGTKLEIK
B6: “VH4+VL4”-scFv (scFv)
scFv: QVQLVQSGAEVKKPGASVKVSCKASDYTFTNYWLGWVRQAPGHGLEWIGHIYPGGGYTNYNEKFKGRATLTADTSTSTVYMELSSLRSEDTAVYFCARVRSGNDALDFWGQGTLVTVSSGGGGSGGGGSGGGGSEIVLTQSPATLSLSPGERATLSCRASESVDEYGISFMNWFQQKPGQAPRLLIYSASNQGSGIPARFSGSGSGTDFTLTISSLEPEDFAMYFCQQSKEVPWTFGGGTKLEIK
B7: “VH4+VL1”-scFv (scFv)
scFv: QVQLVQSGAEVKKPGASVKVSCKASDYTFTNYWLGWVRQAPGHGLEWIGHIYPGGGYTNYNEKFKGRATLTADTSTSTVYMELSSLRSEDTAVYFCARVRSGNDALDFWGQGTLVTVSSGGGGSGGGGSGGGGSEIVLTQSPATLSLSPGERATLSCRASESVDEYGISFMNWYQQKPGQAPRLLIYSASNQGSGIPARFSGSGSGTDFTLTISSLEPEDFAVYYCQQSKEVPWTFGGGTKLEIK
B8: “VH1+VL1”-scFv (scFv)
scFv: QVQLVQSGAEVKKPGASVKVSCKASDYTFTNYWLGWVRQAPGQGLEWMGHIYPGGGYTNYNEKFKGRVTMTRDTSTSTVYMELSSLRSEDTAVYYCARVRSGNDALDFWGQGTLVTVSSGGGGSGGGGSGGGGSEIVLTQSPATLSLSPGERATLSCRASESVDEYGISFMNWYQQKPGQAPRLLIYSASNQGSGIPARFSGSGSGTDFTLTISSLEPEDFAVYYCQQSKEVPWTFGGGTKLEIK
notes: CHO expression supernatant
B9: 1B1 (scFv)
scFv: QVQLVQSGAVVKKPGASVKVSCKASDYTFTNYWLGWVRQAPGQGLEWMGHIYPGGGYTNYNEKFKGRVTMTSDTSTSTVYMELSSLSSEDTAVYYCARVRSGNDALDFWGQGTLVTVSSGGGGSGGGGSGGGGSEIVLTQSPATLSLSPGERATLSCHASESVDEYGISFMNWFQQKPGQAPRLLIYSASNQGSGIPARFSGSGSGTDFTLTISSLEPEDFAVYFCQQSKEVPWTFGGGTKLEIK
notes: As m119: scFv on phage
B10: “VH3+VL4”-scFv (scFv)
scFv: QVQLVQSGAEVKKPGASVKVSCKASDYTFTNYWLGWVRQAPGQGLEWIGHIYPGGGYTNYNEKFKGRATLTADTSTSTVYMELSSLRSEDTAVYFCARVRSGNDALDFWGQGTLVTVSSGGGGSGGGGSGGGGSEIVLTQSPATLSLSPGERATLSCRASESVDEYGISFMNWFQQKPGQAPRLLIYSASNQGSGIPARFSGSGSGTDFTLTISSLEPEDFAMYFCQQSKEVPWTFGGGTKLEIK
B11: “VH1+VL4”-scFv (scFv)
scFv: QVQLVQSGAEVKKPGASVKVSCKASDYTFTNYWLGWVRQAPGQGLEWMGHIYPGGGYTNYNEKFKGRVTMTRDTSTSTVYMELSSLRSEDTAVYYCARVRSGNDALDFWGQGTLVTVSSGGGGSGGGGSGGGGSEIVLTQSPATLSLSPGERATLSCRASESVDEYGISFMNWFQQKPGQAPRLLIYSASNQGSGIPARFSGSGSGTDFTLTISSLEPEDFAMYFCQQSKEVPWTFGGGTKLEIK
B12: “VH2+VL4”-scFv (scFv)
scFv: QVQLVQSGAEVKKPGASVKVSCKASDYTFTNYWLGWVRQAPGQGLEWIGHIYPGGGYTNYNEKFKGRVTMTADTSTSTVYMELSSLRSEDTAVYFCARVRSGNDALDFWGQGTLVTVSSGGGGSGGGGSGGGGSEIVLTQSPATLSLSPGERATLSCRASESVDEYGISFMNWFQQKPGQAPRLLIYSASNQGSGIPARFSGSGSGTDFTLTISSLEPEDFAMYFCQQSKEVPWTFGGGTKLEIK
B13: “VH1+VL2”-scFv (scFv)
scFv: QVQLVQSGAEVKKPGASVKVSCKASDYTFTNYWLGWVRQAPGQGLEWMGHIYPGGGYTNYNEKFKGRVTMTRDTSTSTVYMELSSLRSEDTAVYYCARVRSGNDALDFWGQGTLVTVSSGGGGSGGGGSGGGGSEIVLTQSPATLSLSPGERATLSCRASESVDEYGISFMNWYQQKPGQAPRLLIYSASNQGSGIPARFSGSGSGTDFTLTISSLEPEDFAVYFCQQSKEVPWTFGGGTKLEIK
B14: “VH3+VL2”-scFv (scFv)
scFv: QVQLVQSGAEVKKPGASVKVSCKASDYTFTNYWLGWVRQAPGQGLEWIGHIYPGGGYTNYNEKFKGRATLTADTSTSTVYMELSSLRSEDTAVYFCARVRSGNDALDFWGQGTLVTVSSGGGGSGGGGSGGGGSEIVLTQSPATLSLSPGERATLSCRASESVDEYGISFMNWYQQKPGQAPRLLIYSASNQGSGIPARFSGSGSGTDFTLTISSLEPEDFAVYFCQQSKEVPWTFGGGTKLEIK
B15: “VH4+VL3”-scFv (scFv)
scFv: QVQLVQSGAEVKKPGASVKVSCKASDYTFTNYWLGWVRQAPGHGLEWIGHIYPGGGYTNYNEKFKGRATLTADTSTSTVYMELSSLRSEDTAVYFCARVRSGNDALDFWGQGTLVTVSSGGGGSGGGGSGGGGSEIVLTQSPATLSLSPGERATLSCRASESVDEYGISFMNWFQQKPGQAPRLLIYSASNQGSGIPARFSGSGSGTDFTLTISSLEPEDFAVYFCQQSKEVPWTFGGGTKLEIK
B16: 1A10 (scFv)
scFv: QVQLVQSGAEVKKPGASVKVSCKASDYTFTNYWLGWVRQAPGQGLEWMGHIYPGGGYTNYNEKFKGRVTMTRDTSTSTVYMELSSLRSEDTAVYYCARVSSGNDALDFWGQGTLVTVSSGGGGSGGGGSGGGGSEIVLTQSPATLSLSPGERATLSCRASESVDEYGISFMNWFQQKPGQAPRLLIYSASNQGSGIPARFSGSGSGTDFTLTISSLEPEDFAVYFCQQSKEQPWTFGGGTKLEIK
B17: “VH2+VL3”-scFv (scFv)
scFv: QVQLVQSGAEVKKPGASVKVSCKASDYTFTNYWLGWVRQAPGQGLEWIGHIYPGGGYTNYNEKFKGRVTMTADTSTSTVYMELSSLRSEDTAVYFCARVRSGNDALDFWGQGTLVTVSSGGGGSGGGGSGGGGSEIVLTQSPATLSLSPGERATLSCRASESVDEYGISFMNWFQQKPGQAPRLLIYSASNQGSGIPARFSGSGSGTDFTLTISSLEPEDFAVYFCQQSKEVPWTFGGGTKLEIK
B18: “VH2+VL1”-scFv (scFv)
scFv: QVQLVQSGAEVKKPGASVKVSCKASDYTFTNYWLGWVRQAPGQGLEWIGHIYPGGGYTNYNEKFKGRVTMTADTSTSTVYMELSSLRSEDTAVYFCARVRSGNDALDFWGQGTLVTVSSGGGGSGGGGSGGGGSEIVLTQSPATLSLSPGERATLSCRASESVDEYGISFMNWYQQKPGQAPRLLIYSASNQGSGIPARFSGSGSGTDFTLTISSLEPEDFAVYYCQQSKEVPWTFGGGTKLEIK

Key:
IL-11 [1] = biological target: T1, IL-11 (UniProt P20809 22-199, limits assumed); assay: SPR Biacore, scFv captured, IL-11 400 nM
T1 construct: also called IL-11 protein; IL-11 antigen
T1 sequence (looked up): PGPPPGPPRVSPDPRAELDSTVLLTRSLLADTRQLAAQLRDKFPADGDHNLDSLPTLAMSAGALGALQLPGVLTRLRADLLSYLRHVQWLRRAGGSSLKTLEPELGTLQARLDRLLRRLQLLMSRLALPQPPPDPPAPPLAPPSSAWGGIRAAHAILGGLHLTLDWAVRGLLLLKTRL
Method: The measure method included the steps of capturing the humanized single-chain antibody at a flow rate of 10 uL/min. […] Finally, the chip was regenerated with 10 mM glycine buffer.

IL-11 [2] = biological target: T1, IL-11; assay: phage ELISA on IL-11
IL-11 [3] = biological target: T1, IL-11; assay: flow cytometry of phage clone; cells not given

Binder | Kd (IL-11 [1]) [nM] | koff (IL-11 [1]) [s⁻¹] | kon (IL-11 [1]) [M⁻¹ s⁻¹] | ELISA (IL-11 [2]) | Flow (Mean) (IL-11 [3]) [mean fluorescence]
B1 | 12.3 | 0.000436 | 35500 |  | 
B2 | 17.8 | 0.000812 | 45700 |  | 
B3 | 22.5 | 0.001 | 44500 |  | 
B4 | 11.1 | 0.000614 | 55200 |  | 
B5 | 9.76 | 0.000464 | 47600 |  | 
B6 | 10 | 0.000481 | 47900 |  | 
B7 | 17.2 | 0.00084 | 48900 |  | 
B8 | 21.6 | 0.000758 | 35100 |  | 
B9 |  |  |  | 1.46 | 3500
B10 | 13.3 | 0.000556 | 41800 |  | 
B11 | 11.7 | 0.000387 | 33100 |  | 
B12 | 10.8 | 0.000528 | 48800 |  | 
B13 | 11.2 | 0.000461 | 41300 |  | 
B14 | 14.6 | 0.00068 | 46500 |  | 
B15 | 11.2 | 0.000516 | 46100 |  | 
B16 |  |  |  | 2.06 | 2200
B17 | 11.9 | 0.000541 | 45600 |  | 
B18 | 16.7 | 0.00089 | 53400 |  | 

Reference: US20250002574A1 (SUNSHINE LAKE PHARMA, published 2025)
